Target: T1, FcγRIIa R (human, UniProt P12318 34-217)
T1 construct: extracellular domain; also called FcgRIIa R type; 2aR
T1 sequence (looked up): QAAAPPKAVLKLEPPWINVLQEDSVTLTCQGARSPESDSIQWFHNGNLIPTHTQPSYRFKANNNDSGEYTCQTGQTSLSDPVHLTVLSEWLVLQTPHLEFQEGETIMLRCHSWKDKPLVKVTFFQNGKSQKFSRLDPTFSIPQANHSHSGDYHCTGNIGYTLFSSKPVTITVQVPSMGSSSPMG
Test: SPR (Biacore), captured antibody, FcγR as analyte; relative binding activity
Description: Analysis of interaction between objective antibody and the FcγR was carried out using Biacore T100 (GE Healthcare). HBS-EP+ (GE Healthcare) was used as the running buffer, and the measurement temperature was set to 25° C. Chips produced by immobilizing the antigen peptide by the amine coupling method to a Series S Sencor Chip CM5 (GE Healthcare), or alternatively, chips produced by allowing preliminarily biotinylated antigen peptides to interact with and immobilize onto a Series S Sensor Chip SA (certified) (GE Healthcare) were used. Antibodies of interest were captured onto an antigen peptide-immobilized chip, and allowed to interact to each FcγR diluted with running buffer. To regenerate and repeatedly use the chip, the antibodies captured on the chip were washed off by reacting 10 mM glycine-HCl, pH 1.5.

| Ho/Con_2aR | Binder |
| --- | --- |
| 131 % (GpH7-B3/GpL16-k0 = 100) | GpH7-B3 variant K326_08L/GpL16-k0 (antibody, human IgG1, kappa, also called Ho Ab K326_08L) heavy: not shown light: DIVMTQSPLSLPVTPGEPASISCQASESLVHSNRNTYLHWYLQKPGQSPQLLIYKVSNRFSGVPDRFSGSGSGTDFTLKISRVEAEDVGVYYCSQNTHVPPTFGQGTKVEIERTVAAPSVFIFPPSDEQLKSGTASVVCLLNNFYPREAKVQWKVDNALQSGNSQESVTEQDSKDSTYSLSSTLTLSKADYEKHKVYACEVTHQGLSSPVTKSFNRGEC |
| 105 % (GpH7-B3/GpL16-k0 = 100) | GpH7-B3 variant K334_08L/GpL16-k0 (antibody, human IgG1, kappa, also called Ho Ab K334_08L) heavy: not shown light: DIVMTQSPLSLPVTPGEPASISCQASESLVHSNRNTYLHWYLQKPGQSPQLLIYKVSNRFSGVPDRFSGSGSGTDFTLKISRVEAEDVGVYYCSQNTHVPPTFGQGTKVEIERTVAAPSVFIFPPSDEQLKSGTASVVCLLNNFYPREAKVQWKVDNALQSGNSQESVTEQDSKDSTYSLSSTLTLSKADYEKHKVYACEVTHQGLSSPVTKSFNRGEC |
| 53.8 % (GpH7-B3/GpL16-k0 = 100) | GpH7-B3 variant L234_20W/GpL16-k0 (antibody, human IgG1, kappa, also called Ho Ab L234_20W) heavy: not shown light: DIVMTQSPLSLPVTPGEPASISCQASESLVHSNRNTYLHWYLQKPGQSPQLLIYKVSNRFSGVPDRFSGSGSGTDFTLKISRVEAEDVGVYYCSQNTHVPPTFGQGTKVEIERTVAAPSVFIFPPSDEQLKSGTASVVCLLNNFYPREAKVQWKVDNALQSGNSQESVTEQDSKDSTYSLSSTLTLSKADYEKHKVYACEVTHQGLSSPVTKSFNRGEC |
| 106 % (GpH7-B3/GpL16-k0 = 100) | GpH7-B3 variant K334_10E/GpL16-k0 (antibody, human IgG1, kappa, also called Ho Ab K334_10E) heavy: not shown light: DIVMTQSPLSLPVTPGEPASISCQASESLVHSNRNTYLHWYLQKPGQSPQLLIYKVSNRFSGVPDRFSGSGSGTDFTLKISRVEAEDVGVYYCSQNTHVPPTFGQGTKVEIERTVAAPSVFIFPPSDEQLKSGTASVVCLLNNFYPREAKVQWKVDNALQSGNSQESVTEQDSKDSTYSLSSTLTLSKADYEKHKVYACEVTHQGLSSPVTKSFNRGEC |
| 108 % (GpH7-B3/GpL16-k0 = 100) | GpH7-B3 variant K334_19Q/GpL16-k0 (antibody, human IgG1, kappa, also called Ho Ab K334_19Q) heavy: not shown light: DIVMTQSPLSLPVTPGEPASISCQASESLVHSNRNTYLHWYLQKPGQSPQLLIYKVSNRFSGVPDRFSGSGSGTDFTLKISRVEAEDVGVYYCSQNTHVPPTFGQGTKVEIERTVAAPSVFIFPPSDEQLKSGTASVVCLLNNFYPREAKVQWKVDNALQSGNSQESVTEQDSKDSTYSLSSTLTLSKADYEKHKVYACEVTHQGLSSPVTKSFNRGEC |
| 106 % (GpH7-B3/GpL16-k0 = 100) | GpH7-B3 variant K334_13S/GpL16-k0 (antibody, human IgG1, kappa, also called Ho Ab K334_13S) heavy: not shown light: DIVMTQSPLSLPVTPGEPASISCQASESLVHSNRNTYLHWYLQKPGQSPQLLIYKVSNRFSGVPDRFSGSGSGTDFTLKISRVEAEDVGVYYCSQNTHVPPTFGQGTKVEIERTVAAPSVFIFPPSDEQLKSGTASVVCLLNNFYPREAKVQWKVDNALQSGNSQESVTEQDSKDSTYSLSSTLTLSKADYEKHKVYACEVTHQGLSSPVTKSFNRGEC |
| 95.7 % (GpH7-B3/GpL16-k0 = 100) | GpH7-B3 variant K326_12R/GpL16-k0 (antibody, human IgG1, kappa, also called Ho Ab K326_12R) heavy: not shown light: DIVMTQSPLSLPVTPGEPASISCQASESLVHSNRNTYLHWYLQKPGQSPQLLIYKVSNRFSGVPDRFSGSGSGTDFTLKISRVEAEDVGVYYCSQNTHVPPTFGQGTKVEIERTVAAPSVFIFPPSDEQLKSGTASVVCLLNNFYPREAKVQWKVDNALQSGNSQESVTEQDSKDSTYSLSSTLTLSKADYEKHKVYACEVTHQGLSSPVTKSFNRGEC |
| 110 % (GpH7-B3/GpL16-k0 = 100) | GpH7-B3 variant K334_12R/GpL16-k0 (antibody, human IgG1, kappa, also called Ho Ab K334_12R) heavy: not shown light: DIVMTQSPLSLPVTPGEPASISCQASESLVHSNRNTYLHWYLQKPGQSPQLLIYKVSNRFSGVPDRFSGSGSGTDFTLKISRVEAEDVGVYYCSQNTHVPPTFGQGTKVEIERTVAAPSVFIFPPSDEQLKSGTASVVCLLNNFYPREAKVQWKVDNALQSGNSQESVTEQDSKDSTYSLSSTLTLSKADYEKHKVYACEVTHQGLSSPVTKSFNRGEC |
| 134 % (GpH7-B3/GpL16-k0 = 100) | GpH7-B3 variant K326_15Y/GpL16-k0 (antibody, human IgG1, kappa, also called Ho Ab K326_15Y) heavy: not shown light: DIVMTQSPLSLPVTPGEPASISCQASESLVHSNRNTYLHWYLQKPGQSPQLLIYKVSNRFSGVPDRFSGSGSGTDFTLKISRVEAEDVGVYYCSQNTHVPPTFGQGTKVEIERTVAAPSVFIFPPSDEQLKSGTASVVCLLNNFYPREAKVQWKVDNALQSGNSQESVTEQDSKDSTYSLSSTLTLSKADYEKHKVYACEVTHQGLSSPVTKSFNRGEC |
| 111 % (GpH7-B3/GpL16-k0 = 100) | GpH7-B3 variant L235_15Y/GpL16-k0 (antibody, human IgG1, kappa, also called Ho Ab L235_15Y) heavy: not shown light: DIVMTQSPLSLPVTPGEPASISCQASESLVHSNRNTYLHWYLQKPGQSPQLLIYKVSNRFSGVPDRFSGSGSGTDFTLKISRVEAEDVGVYYCSQNTHVPPTFGQGTKVEIERTVAAPSVFIFPPSDEQLKSGTASVVCLLNNFYPREAKVQWKVDNALQSGNSQESVTEQDSKDSTYSLSSTLTLSKADYEKHKVYACEVTHQGLSSPVTKSFNRGEC |
| 98.9 % (GpH7-B3/GpL16-k0 = 100) | GpH7-B3 variant L235_04F/GpL16-k0 (antibody, human IgG1, kappa, also called Ho Ab L235_04F) heavy: not shown light: DIVMTQSPLSLPVTPGEPASISCQASESLVHSNRNTYLHWYLQKPGQSPQLLIYKVSNRFSGVPDRFSGSGSGTDFTLKISRVEAEDVGVYYCSQNTHVPPTFGQGTKVEIERTVAAPSVFIFPPSDEQLKSGTASVVCLLNNFYPREAKVQWKVDNALQSGNSQESVTEQDSKDSTYSLSSTLTLSKADYEKHKVYACEVTHQGLSSPVTKSFNRGEC |
| 73 % (GpH7-B3/GpL16-k0 = 100) | GpH7-B3 variant L235_09D/GpL16-k0 (antibody, human IgG1, kappa, also called Ho Ab L235_09D) heavy: not shown light: DIVMTQSPLSLPVTPGEPASISCQASESLVHSNRNTYLHWYLQKPGQSPQLLIYKVSNRFSGVPDRFSGSGSGTDFTLKISRVEAEDVGVYYCSQNTHVPPTFGQGTKVEIERTVAAPSVFIFPPSDEQLKSGTASVVCLLNNFYPREAKVQWKVDNALQSGNSQESVTEQDSKDSTYSLSSTLTLSKADYEKHKVYACEVTHQGLSSPVTKSFNRGEC |
| 113 % (GpH7-B3/GpL16-k0 = 100) | GpH7-B3 variant K326_18N/GpL16-k0 (antibody, human IgG1, kappa, also called Ho Ab K326_18N) heavy: not shown light: DIVMTQSPLSLPVTPGEPASISCQASESLVHSNRNTYLHWYLQKPGQSPQLLIYKVSNRFSGVPDRFSGSGSGTDFTLKISRVEAEDVGVYYCSQNTHVPPTFGQGTKVEIERTVAAPSVFIFPPSDEQLKSGTASVVCLLNNFYPREAKVQWKVDNALQSGNSQESVTEQDSKDSTYSLSSTLTLSKADYEKHKVYACEVTHQGLSSPVTKSFNRGEC |
| 42.8 % (GpH7-B3/GpL16-k0 = 100) | GpH7-B3 variant L234_09D/GpL16-k0 (antibody, human IgG1, kappa, also called Ho Ab L234_09D) heavy: not shown light: DIVMTQSPLSLPVTPGEPASISCQASESLVHSNRNTYLHWYLQKPGQSPQLLIYKVSNRFSGVPDRFSGSGSGTDFTLKISRVEAEDVGVYYCSQNTHVPPTFGQGTKVEIERTVAAPSVFIFPPSDEQLKSGTASVVCLLNNFYPREAKVQWKVDNALQSGNSQESVTEQDSKDSTYSLSSTLTLSKADYEKHKVYACEVTHQGLSSPVTKSFNRGEC |
| 96.4 % (GpH7-B3/GpL16-k0 = 100) | GpH7-B3 variant K334_20W/GpL16-k0 (antibody, human IgG1, kappa, also called Ho Ab K334_20W) heavy: not shown light: DIVMTQSPLSLPVTPGEPASISCQASESLVHSNRNTYLHWYLQKPGQSPQLLIYKVSNRFSGVPDRFSGSGSGTDFTLKISRVEAEDVGVYYCSQNTHVPPTFGQGTKVEIERTVAAPSVFIFPPSDEQLKSGTASVVCLLNNFYPREAKVQWKVDNALQSGNSQESVTEQDSKDSTYSLSSTLTLSKADYEKHKVYACEVTHQGLSSPVTKSFNRGEC |
| 39.9 % (GpH7-B3/GpL16-k0 = 100) | GpH7-B3 variant L234_10E/GpL16-k0 (antibody, human IgG1, kappa, also called Ho Ab L234_10E) heavy: not shown light: DIVMTQSPLSLPVTPGEPASISCQASESLVHSNRNTYLHWYLQKPGQSPQLLIYKVSNRFSGVPDRFSGSGSGTDFTLKISRVEAEDVGVYYCSQNTHVPPTFGQGTKVEIERTVAAPSVFIFPPSDEQLKSGTASVVCLLNNFYPREAKVQWKVDNALQSGNSQESVTEQDSKDSTYSLSSTLTLSKADYEKHKVYACEVTHQGLSSPVTKSFNRGEC |
| 120 % (GpH7-B3/GpL16-k0 = 100) | GpH7-B3 variant K326_20W/GpL16-k0 (antibody, human IgG1, kappa, also called Ho Ab K326_20W) heavy: not shown light: DIVMTQSPLSLPVTPGEPASISCQASESLVHSNRNTYLHWYLQKPGQSPQLLIYKVSNRFSGVPDRFSGSGSGTDFTLKISRVEAEDVGVYYCSQNTHVPPTFGQGTKVEIERTVAAPSVFIFPPSDEQLKSGTASVVCLLNNFYPREAKVQWKVDNALQSGNSQESVTEQDSKDSTYSLSSTLTLSKADYEKHKVYACEVTHQGLSSPVTKSFNRGEC |
| 100 % (GpH7-B3/GpL16-k0 = 100) | GpH7-B3 variant K334_02A/GpL16-k0 (antibody, human IgG1, kappa, also called Ho Ab K334_02A) heavy: not shown light: DIVMTQSPLSLPVTPGEPASISCQASESLVHSNRNTYLHWYLQKPGQSPQLLIYKVSNRFSGVPDRFSGSGSGTDFTLKISRVEAEDVGVYYCSQNTHVPPTFGQGTKVEIERTVAAPSVFIFPPSDEQLKSGTASVVCLLNNFYPREAKVQWKVDNALQSGNSQESVTEQDSKDSTYSLSSTLTLSKADYEKHKVYACEVTHQGLSSPVTKSFNRGEC |
| 110 % (GpH7-B3/GpL16-k0 = 100) | GpH7-B3 variant K334_04F/GpL16-k0 (antibody, human IgG1, kappa, also called Ho Ab K334_04F) heavy: not shown light: DIVMTQSPLSLPVTPGEPASISCQASESLVHSNRNTYLHWYLQKPGQSPQLLIYKVSNRFSGVPDRFSGSGSGTDFTLKISRVEAEDVGVYYCSQNTHVPPTFGQGTKVEIERTVAAPSVFIFPPSDEQLKSGTASVVCLLNNFYPREAKVQWKVDNALQSGNSQESVTEQDSKDSTYSLSSTLTLSKADYEKHKVYACEVTHQGLSSPVTKSFNRGEC |
| 43.3 % (GpH7-B3/GpL16-k0 = 100) | GpH7-B3 variant L234_04F/GpL16-k0 (antibody, human IgG1, kappa, also called Ho Ab L234_04F) heavy: not shown light: DIVMTQSPLSLPVTPGEPASISCQASESLVHSNRNTYLHWYLQKPGQSPQLLIYKVSNRFSGVPDRFSGSGSGTDFTLKISRVEAEDVGVYYCSQNTHVPPTFGQGTKVEIERTVAAPSVFIFPPSDEQLKSGTASVVCLLNNFYPREAKVQWKVDNALQSGNSQESVTEQDSKDSTYSLSSTLTLSKADYEKHKVYACEVTHQGLSSPVTKSFNRGEC |
| 102 % (GpH7-B3/GpL16-k0 = 100) | GpH7-B3 variant K334_05P/GpL16-k0 (antibody, human IgG1, kappa, also called Ho Ab K334_05P) heavy: not shown light: DIVMTQSPLSLPVTPGEPASISCQASESLVHSNRNTYLHWYLQKPGQSPQLLIYKVSNRFSGVPDRFSGSGSGTDFTLKISRVEAEDVGVYYCSQNTHVPPTFGQGTKVEIERTVAAPSVFIFPPSDEQLKSGTASVVCLLNNFYPREAKVQWKVDNALQSGNSQESVTEQDSKDSTYSLSSTLTLSKADYEKHKVYACEVTHQGLSSPVTKSFNRGEC |

From patent publication US20150344570A1 (published 2015)
